Starred links: 1 amine or outer side, 2 acyl side, 3 side chain; linkers in the order of their positions; H or OH if unused. Non-standard residues stand in square brackets, D forms with d. *: point of attachment. Imidazole4carbonyl = O=C(c1cnc[nH]1)*; 4Pal = N[C@@H](Cc1ccncc1)C(=O)O; Cha = N[C@@H](CC1CCCCC1)C(=O)O; Cit = NC(=O)NCCC[C@H](N)C(=O)O; Isonicotinoyl = O=C(c1ccncc1)*; Suc = O=C(CCC(=O)[*:2])[*:1]; Isobutyryl = CC(C)C(=O)*; Nle = CCCC[C@H](N)C(=O)O; Aib = CC(C)(N)C(=O)O; βAla = NCCC(=O)O
B1: Ac-[βAla24, Pya(4)26, Cha27,36, Aib28,31, Lys30]-PYY(23-36) (peptide)
peptide: Ac-S[βAla]R[4Pal][Cha][Aib]NK[Aib]TRQR[Cha]-NH2
SMILES: CC(=O)N[C@@H](CO)C(=O)NCCC(=O)N[C@@H](CCCNC(=N)N)C(=O)N[C@@H](Cc1ccncc1)C(=O)N[C@@H](CC1CCCCC1)C(=O)NC(C)(C)C(=O)N[C@@H](CC(N)=O)C(=O)N[C@@H](CCCCN)C(=O)NC(C)(C)C(=O)N[C@H](C(=O)N[C@@H](CCCNC(=N)N)C(=O)N[C@@H](CCC(N)=O)C(=O)N[C@@H](CCCNC(=N)N)C(=O)N[C@@H](CC1CCCCC1)C(N)=O)[C@@H](C)O
B2: 4-Imidazolecarbonyl-[Glu23, D-Pro24, Pya(4)26, Cha27,36, Aib28,31, Lys30]-PYY(23-36) (peptide)
peptide: Imidazole4carbonyl-E[dP]R[4Pal][Cha][Aib]NK[Aib]TRQR[Cha]-NH2
SMILES: C[C@@H](O)[C@H](NC(=O)C(C)(C)NC(=O)[C@H](CCCCN)NC(=O)[C@H](CC(N)=O)NC(=O)C(C)(C)NC(=O)[C@H](CC1CCCCC1)NC(=O)[C@H](Cc1ccncc1)NC(=O)[C@H](CCCNC(=N)N)NC(=O)[C@H]1CCCN1C(=O)[C@H](CCC(=O)O)NC(=O)c1cnc[nH]1)C(=O)N[C@@H](CCCNC(=N)N)C(=O)N[C@@H](CCC(N)=O)C(=O)N[C@@H](CCCNC(=N)N)C(=O)N[C@@H](CC1CCCCC1)C(N)=O
B3: Isobutanoyl-[Glu23, D-Pro24, Pya(4)26, Cha27,36, Aib28,31, Lys30]-PYY(23-36) (peptide)
peptide: Isobutyryl-E[dP]R[4Pal][Cha][Aib]NK[Aib]TRQR[Cha]-NH2
SMILES: CC(C)C(=O)N[C@@H](CCC(=O)O)C(=O)N1CCC[C@@H]1C(=O)N[C@@H](CCCNC(=N)N)C(=O)N[C@@H](Cc1ccncc1)C(=O)N[C@@H](CC1CCCCC1)C(=O)NC(C)(C)C(=O)N[C@@H](CC(N)=O)C(=O)N[C@@H](CCCCN)C(=O)NC(C)(C)C(=O)N[C@H](C(=O)N[C@@H](CCCNC(=N)N)C(=O)N[C@@H](CCC(N)=O)C(=O)N[C@@H](CCCNC(=N)N)C(=O)N[C@@H](CC1CCCCC1)C(N)=O)[C@@H](C)O
B4: Ac-[Glu23, D-Pro24, Nle25, Pya(4)26, Cha27,36, Aib28,31, Lys30]-PYY(23-36) (peptide)
peptide: Ac-E[dP][Nle][4Pal][Cha][Aib]NK[Aib]TRQR[Cha]-NH2
SMILES: CCCC[C@H](NC(=O)[C@H]1CCCN1C(=O)[C@H](CCC(=O)O)NC(C)=O)C(=O)N[C@@H](Cc1ccncc1)C(=O)N[C@@H](CC1CCCCC1)C(=O)NC(C)(C)C(=O)N[C@@H](CC(N)=O)C(=O)N[C@@H](CCCCN)C(=O)NC(C)(C)C(=O)N[C@H](C(=O)N[C@@H](CCCNC(=N)N)C(=O)N[C@@H](CCC(N)=O)C(=O)N[C@@H](CCCNC(=N)N)C(=O)N[C@@H](CC1CCCCC1)C(N)=O)[C@@H](C)O
B5: 4-Pyridinecarbonyl-[Glu23, D-Pro24, Pya(4)26, Cha27,36, Aib28,31, Lys30]-PYY(23-36) (peptide)
peptide: Isonicotinoyl-E[dP]R[4Pal][Cha][Aib]NK[Aib]TRQR[Cha]-NH2
SMILES: C[C@@H](O)[C@H](NC(=O)C(C)(C)NC(=O)[C@H](CCCCN)NC(=O)[C@H](CC(N)=O)NC(=O)C(C)(C)NC(=O)[C@H](CC1CCCCC1)NC(=O)[C@H](Cc1ccncc1)NC(=O)[C@H](CCCNC(=N)N)NC(=O)[C@H]1CCCN1C(=O)[C@H](CCC(=O)O)NC(=O)c1ccncc1)C(=O)N[C@@H](CCCNC(=N)N)C(=O)N[C@@H](CCC(N)=O)C(=O)N[C@@H](CCCNC(=N)N)C(=O)N[C@@H](CC1CCCCC1)C(N)=O
B6: Ac-[D-Pro24, Cit25, Cha27,36, Aib28,31, Lys30]-PYY(23-36) (peptide)
peptide: Ac-S[dP][Cit]H[Cha][Aib]NK[Aib]TRQR[Cha]-NH2
SMILES: CC(=O)N[C@@H](CO)C(=O)N1CCC[C@@H]1C(=O)N[C@@H](CCCNC(N)=O)C(=O)N[C@@H](Cc1c[nH]cn1)C(=O)N[C@@H](CC1CCCCC1)C(=O)NC(C)(C)C(=O)N[C@@H](CC(N)=O)C(=O)N[C@@H](CCCCN)C(=O)NC(C)(C)C(=O)N[C@H](C(=O)N[C@@H](CCCNC(=N)N)C(=O)N[C@@H](CCC(N)=O)C(=O)N[C@@H](CCCNC(=N)N)C(=O)N[C@@H](CC1CCCCC1)C(N)=O)[C@@H](C)O
B7: Ac-[Glu23, D-Pro24, Pya(4)26, Cha27,36, Aib28,31, Lys30]-PYY(23-36) (peptide)
peptide: Ac-E[dP]R[4Pal][Cha][Aib]NK[Aib]TRQR[Cha]-NH2
SMILES: CC(=O)N[C@@H](CCC(=O)O)C(=O)N1CCC[C@@H]1C(=O)N[C@@H](CCCNC(=N)N)C(=O)N[C@@H](Cc1ccncc1)C(=O)N[C@@H](CC1CCCCC1)C(=O)NC(C)(C)C(=O)N[C@@H](CC(N)=O)C(=O)N[C@@H](CCCCN)C(=O)NC(C)(C)C(=O)N[C@H](C(=O)N[C@@H](CCCNC(=N)N)C(=O)N[C@@H](CCC(N)=O)C(=O)N[C@@H](CCCNC(=N)N)C(=O)N[C@@H](CC1CCCCC1)C(N)=O)[C@@H](C)O
B8: 3-Carboxypropionyl-[Gln23, D-Pro24, Pya(4)26, Cha27,36, Aib28,31, Lys30]-PYY(23-36) (peptide)
peptide: Suc-Q[dP]R[4Pal][Cha][Aib]NK[Aib]TRQR[Cha]-NH2
SMILES: C[C@@H](O)[C@H](NC(=O)C(C)(C)NC(=O)[C@H](CCCCN)NC(=O)[C@H](CC(N)=O)NC(=O)C(C)(C)NC(=O)[C@H](CC1CCCCC1)NC(=O)[C@H](Cc1ccncc1)NC(=O)[C@H](CCCNC(=N)N)NC(=O)[C@H]1CCCN1C(=O)[C@H](CCC(N)=O)NC(=O)CCC(=O)O)C(=O)N[C@@H](CCCNC(=N)N)C(=O)N[C@@H](CCC(N)=O)C(=O)N[C@@H](CCCNC(=N)N)C(=O)N[C@@H](CC1CCCCC1)C(N)=O
B9: Ac-[Thr23, D-Pro24, Pya(4)26, Cha27,36, Aib28,31, Lys30]-PYY(23-36) (peptide)
peptide: Ac-T[dP]R[4Pal][Cha][Aib]NK[Aib]TRQR[Cha]-NH2
SMILES: CC(=O)N[C@H](C(=O)N1CCC[C@@H]1C(=O)N[C@@H](CCCNC(=N)N)C(=O)N[C@@H](Cc1ccncc1)C(=O)N[C@@H](CC1CCCCC1)C(=O)NC(C)(C)C(=O)N[C@@H](CC(N)=O)C(=O)N[C@@H](CCCCN)C(=O)NC(C)(C)C(=O)N[C@H](C(=O)N[C@@H](CCCNC(=N)N)C(=O)N[C@@H](CCC(N)=O)C(=O)N[C@@H](CCCNC(=N)N)C(=O)N[C@@H](CC1CCCCC1)C(N)=O)[C@@H](C)O)[C@@H](C)O
B10: Ac-[D-Pro24, Nle25, Pya(4)26, Cha27,36, Aib28,31, Lys30]-PYY(23-36) (peptide)
peptide: Ac-S[dP][Nle][4Pal][Cha][Aib]NK[Aib]TRQR[Cha]-NH2
SMILES: CCCC[C@H](NC(=O)[C@H]1CCCN1C(=O)[C@H](CO)NC(C)=O)C(=O)N[C@@H](Cc1ccncc1)C(=O)N[C@@H](CC1CCCCC1)C(=O)NC(C)(C)C(=O)N[C@@H](CC(N)=O)C(=O)N[C@@H](CCCCN)C(=O)NC(C)(C)C(=O)N[C@H](C(=O)N[C@@H](CCCNC(=N)N)C(=O)N[C@@H](CCC(N)=O)C(=O)N[C@@H](CCCNC(=N)N)C(=O)N[C@@H](CC1CCCCC1)C(N)=O)[C@@H](C)O
B11: Ac-[Gln23, D-Pro24, Pya(4)26, Cha27,36, Aib28,31, Lys30]-PYY(23-36) (peptide)
peptide: Ac-Q[dP]R[4Pal][Cha][Aib]NK[Aib]TRQR[Cha]-NH2
SMILES: CC(=O)N[C@@H](CCC(N)=O)C(=O)N1CCC[C@@H]1C(=O)N[C@@H](CCCNC(=N)N)C(=O)N[C@@H](Cc1ccncc1)C(=O)N[C@@H](CC1CCCCC1)C(=O)NC(C)(C)C(=O)N[C@@H](CC(N)=O)C(=O)N[C@@H](CCCCN)C(=O)NC(C)(C)C(=O)N[C@H](C(=O)N[C@@H](CCCNC(=N)N)C(=O)N[C@@H](CCC(N)=O)C(=O)N[C@@H](CCCNC(=N)N)C(=O)N[C@@H](CC1CCCCC1)C(N)=O)[C@@H](C)O
B12: Ac-[Glu23, βAla24, Pya(4)26, Cha27,36, Aib28,31, Lys30]-PYY(23-36) (peptide)
peptide: Ac-E[βAla]R[4Pal][Cha][Aib]NK[Aib]TRQR[Cha]-NH2
SMILES: CC(=O)N[C@@H](CCC(=O)O)C(=O)NCCC(=O)N[C@@H](CCCNC(=N)N)C(=O)N[C@@H](Cc1ccncc1)C(=O)N[C@@H](CC1CCCCC1)C(=O)NC(C)(C)C(=O)N[C@@H](CC(N)=O)C(=O)N[C@@H](CCCCN)C(=O)NC(C)(C)C(=O)N[C@H](C(=O)N[C@@H](CCCNC(=N)N)C(=O)N[C@@H](CCC(N)=O)C(=O)N[C@@H](CCCNC(=N)N)C(=O)N[C@@H](CC1CCCCC1)C(N)=O)[C@@H](C)O
B13: Ac-[D-Pro24, Pya(4)26, Cha27,36, Aib28,31, Lys30]-PYY(22-36) (peptide)
peptide: Ac-AS[dP]R[4Pal][Cha][Aib]NK[Aib]TRQR[Cha]-NH2
SMILES: CC(=O)N[C@@H](C)C(=O)N[C@@H](CO)C(=O)N1CCC[C@@H]1C(=O)N[C@@H](CCCNC(=N)N)C(=O)N[C@@H](Cc1ccncc1)C(=O)N[C@@H](CC1CCCCC1)C(=O)NC(C)(C)C(=O)N[C@@H](CC(N)=O)C(=O)N[C@@H](CCCCN)C(=O)NC(C)(C)C(=O)N[C@H](C(=O)N[C@@H](CCCNC(=N)N)C(=O)N[C@@H](CCC(N)=O)C(=O)N[C@@H](CCCNC(=N)N)C(=O)N[C@@H](CC1CCCCC1)C(N)=O)[C@@H](C)O
B14: Ac-[Glu23, D-Pro24, Pya(4)26, Cha27,36, Aib28,31, Lys30]-PYY(22-36) (peptide)
peptide: Ac-AE[dP]R[4Pal][Cha][Aib]NK[Aib]TRQR[Cha]-NH2
SMILES: CC(=O)N[C@@H](C)C(=O)N[C@@H](CCC(=O)O)C(=O)N1CCC[C@@H]1C(=O)N[C@@H](CCCNC(=N)N)C(=O)N[C@@H](Cc1ccncc1)C(=O)N[C@@H](CC1CCCCC1)C(=O)NC(C)(C)C(=O)N[C@@H](CC(N)=O)C(=O)N[C@@H](CCCCN)C(=O)NC(C)(C)C(=O)N[C@H](C(=O)N[C@@H](CCCNC(=N)N)C(=O)N[C@@H](CCC(N)=O)C(=O)N[C@@H](CCCNC(=N)N)C(=O)N[C@@H](CC1CCCCC1)C(N)=O)[C@@H](C)O

These binders were tested against human Y2 receptor (human) (UniProt P49146) (assay: RBA: displacement of [125I]-PYY from hY2R/CHO membranes).
Chain of human Y2 receptor (human) (P49146 whole entry): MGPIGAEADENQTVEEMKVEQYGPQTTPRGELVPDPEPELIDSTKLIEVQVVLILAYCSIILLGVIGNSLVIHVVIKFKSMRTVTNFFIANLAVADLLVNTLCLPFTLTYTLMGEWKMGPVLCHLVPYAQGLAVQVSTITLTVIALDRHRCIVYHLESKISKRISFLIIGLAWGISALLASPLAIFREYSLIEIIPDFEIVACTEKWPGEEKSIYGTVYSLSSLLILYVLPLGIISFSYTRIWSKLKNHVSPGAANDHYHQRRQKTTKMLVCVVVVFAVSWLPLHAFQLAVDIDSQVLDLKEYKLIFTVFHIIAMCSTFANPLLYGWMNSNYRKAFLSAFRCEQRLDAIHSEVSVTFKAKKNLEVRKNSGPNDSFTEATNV

| Binder | IC50 Ratio (IC50 compound/IC50 PYY(3-36)) |
| --- | --- |
| B1 | 1.9 |
| B2 | 1.3 |
| B3 | 1.9 |
| B4 | 7.5 |
| B5 | 1.9 |
| B6 | 6.2 |
| B7 | 2.7 |
| B8 | 2 |
| B9 | 1.1 |
| B10 | 3 |
| B11 | 1.3 |
| B12 | 7.4 |
| B13 | 2.3 |
| B14 | 5.3 |

The binders below were run against human Y2 receptor (human) (UniProt P49146) (assay: cell-based or functional assay).

| Binder | GBA EC50 Ratio ([35S]GTPγS binding) (EC50 compound/EC50 PYY(3-36)) |
| --- | --- |
| B1 | 1.1 |
| B2 | 1.3 |
| B3 | 2 |
| B4 | 6.9 |
| B5 | 1.8 |
| B6 | 4.6 |
| B7 | 1.9 |
| B8 | 1.9 |
| B9 | 0.69 |
| B10 | 2.4 |
| B11 | 0.9 |
| B12 | 3.9 |
| B13 | 1.7 |
| B14 | 3.5 |
